Measurements from article doi:10.1101/2024.10.29.620886.

Columns and labels:
[1] = target: CR57 canonical diabody with a five amino acid linker 'GGGGS' between the VH and VL domains (human); assay: SEC
[2] = target: Imdevimab diabody (human); assay: SEC

Substance | stoichiometry N [1] | stoichiometry N [2]
CR57 canonical diabody with a five amino acid linker 'GGGGS' between the VH and VL domains | 2 | –
Imdevimab diabody | – | 2
